Laboratory results reported in US20210130436A1 (published 2021).

T1: CD96 (UniProt P40200 22-585, limits assumed)
T1 construct: whole, on cells
T1 sequence (looked up): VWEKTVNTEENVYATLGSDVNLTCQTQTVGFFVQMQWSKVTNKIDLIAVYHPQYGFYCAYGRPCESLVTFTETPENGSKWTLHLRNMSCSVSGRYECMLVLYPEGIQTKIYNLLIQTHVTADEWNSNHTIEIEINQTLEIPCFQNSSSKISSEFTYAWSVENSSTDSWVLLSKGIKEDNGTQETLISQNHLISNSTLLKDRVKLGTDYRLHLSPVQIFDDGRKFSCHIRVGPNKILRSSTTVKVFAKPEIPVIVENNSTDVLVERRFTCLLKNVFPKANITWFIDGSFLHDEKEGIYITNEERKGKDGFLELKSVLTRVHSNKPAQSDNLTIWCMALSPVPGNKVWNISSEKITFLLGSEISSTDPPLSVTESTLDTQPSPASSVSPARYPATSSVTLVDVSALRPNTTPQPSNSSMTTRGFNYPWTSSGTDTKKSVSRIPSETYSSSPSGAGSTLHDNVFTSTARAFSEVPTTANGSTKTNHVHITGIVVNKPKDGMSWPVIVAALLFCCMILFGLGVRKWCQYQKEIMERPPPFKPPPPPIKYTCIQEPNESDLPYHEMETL

T2: CD226 (UniProt Q15762 19-336)
T2 construct: whole, on cells
T2 sequence (looked up): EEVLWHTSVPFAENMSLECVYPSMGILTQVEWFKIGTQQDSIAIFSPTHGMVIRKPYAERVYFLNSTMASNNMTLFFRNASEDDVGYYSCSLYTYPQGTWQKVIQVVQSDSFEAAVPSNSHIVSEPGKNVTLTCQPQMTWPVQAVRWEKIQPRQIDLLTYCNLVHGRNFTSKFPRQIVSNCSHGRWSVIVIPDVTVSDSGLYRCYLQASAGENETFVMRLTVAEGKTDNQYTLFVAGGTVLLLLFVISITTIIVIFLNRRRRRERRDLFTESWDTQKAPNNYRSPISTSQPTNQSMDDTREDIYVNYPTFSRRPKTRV

T3: TIGIT (UniProt Q495A1 22-244)
T3 construct: whole, on cells
T3 sequence (looked up): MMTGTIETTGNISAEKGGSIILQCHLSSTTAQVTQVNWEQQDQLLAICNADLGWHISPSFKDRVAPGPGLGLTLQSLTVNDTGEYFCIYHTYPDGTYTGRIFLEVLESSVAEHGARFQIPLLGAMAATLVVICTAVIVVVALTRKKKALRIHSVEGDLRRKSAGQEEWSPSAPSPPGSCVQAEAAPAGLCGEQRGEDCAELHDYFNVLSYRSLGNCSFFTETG


Key:
[1] = target: T4, CD28 endogenously expressed on Jurkat/IL2 reporter cells (human, UniProt P10747 19-220); assay: flow cytometry, Jurkat cells (CD28), Fc fusion at 33.3 nM
T4 construct: whole, on cells; Target on Jurkat cells; also called Jurkats (CD28)

[2] = target: T5, human CTLA4 expressed on CHO cells (human, UniProt P16410 36-223); assay: flow cytometry, CHO cells stably expressing CTLA4, Fc fusion at 33.3 nM
T5 construct: whole, on cells; Target on CHO cells stably expressing CTLA4; also called huCTLA4
T5 sequence (P16410 36-223): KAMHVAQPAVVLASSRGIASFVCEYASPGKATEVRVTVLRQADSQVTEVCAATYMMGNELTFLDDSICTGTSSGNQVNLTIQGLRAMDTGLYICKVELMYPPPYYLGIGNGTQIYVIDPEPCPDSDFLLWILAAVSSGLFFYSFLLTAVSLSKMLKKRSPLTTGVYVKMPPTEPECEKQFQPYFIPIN

[3] = target: T6, human PD-L1 expressed on CHO cells (human, UniProt Q9NZQ7 19-290); assay: flow cytometry, CHO cells stably expressing PD-L1, Fc fusion at 33.3 nM
T6 construct: whole, on cells; Target on CHO cells stably expressing PD-L1; also called huPD-L1
T6 sequence (Q9NZQ7 19-290): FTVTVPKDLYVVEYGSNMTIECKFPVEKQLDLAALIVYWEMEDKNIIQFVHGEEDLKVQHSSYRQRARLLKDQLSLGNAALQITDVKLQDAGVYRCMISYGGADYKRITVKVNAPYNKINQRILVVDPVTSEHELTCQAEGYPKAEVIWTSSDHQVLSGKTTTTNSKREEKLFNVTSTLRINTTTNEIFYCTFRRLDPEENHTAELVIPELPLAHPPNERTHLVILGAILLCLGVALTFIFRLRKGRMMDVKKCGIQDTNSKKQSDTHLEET

[4] = target: T4, CD28 endogenously expressed on …; assay: flow cytometry, Jurkat cells (CD28); MFI relative to WT CD80 ECD-Fc (Abcam)
[5] = target: T6, human PD-L1 expressed on CHO cells; assay: flow cytometry; MFI on PD-L1 cells over MFI on CD28 (Jurkat) cells at 33.3 nM
[6] = target: T5, human CTLA4 expressed on CHO cells; assay: flow cytometry, CHO cells stably expressing CTLA4; MFI relative to WT CD80 ECD-Fc (Abcam)
[7] = target: T6, human PD-L1 expressed on CHO cells; assay: flow cytometry, CHO cells stably expressing PD-L1; MFI relative to WT CD80 ECD-Fc (Abcam)
CD96 = target: T1, CD96; assay: flow cytometry on cells expressing CD96, Fc fusion at 100 nM
CD226 = target: T2, CD226; assay: flow cytometry on cells expressing CD226, Fc fusion at 100 nM
TIGIT = target: T3, TIGIT; assay: flow cytometry on cells expressing TIGIT, Fc fusion at 100 nM

| Binder | MFI at 33.3 nM [1] [MFI] | MFI at 33.3 nM [2] [MFI] | MFI at 33.3 nM [3] [MFI] | Fold change to WT CD80 [4] [fold] | Ratio of PDL1:CD28 [5] [ratio] | Fold change to WT CD80 [6] [fold] | Fold change to WT CD80 [7] [fold] | MFI at 100 nM (CD96) [MFI] | MFI at 100 nM (CD226) [MFI] | MFI at 100 nM (TIGIT) [MFI] |
| --- | --- | --- | --- | --- | --- | --- | --- | --- | --- | --- |
| CD80 E35D/D46V/M47V/N48K/V68M IgV-Fc (Fc fusion, not shown: small tags and cut ends; a dimerising Fc or GST) VIHVTKEVKEVATLSCGHNVSVEELAQTRIYWQKDKKMVLTMMSGVVKIWPEYKNRTIFDITNNLSIMILALRPSDEGTYECVVLKYEKDAFKREHLAEVTLSVKAD | 1080 | 23900 | 25900 | 1.5 | 23.9 | 0.6 | 203 |  |  |  |
| CD80 N48K/V68M IgV-Fc (Fc fusion, not shown: small tags and cut ends; a dimerising Fc or GST) VIHVTKEVKEVATLSCGHNVSVEELAQTRIYWQKEKKMVLTMMSGDMKIWPEYKNRTIFDITNNLSIMILALRPSDEGTYECVVLKYEKDAFKREHLAEVTLSVKAD | 118 | 2340 | 754 | 0.2 | 6.4 | 0.1 | 5.9 |  |  |  |
| CD80 M47V/N48K/K89N IgV-Fc (Fc fusion, not shown: small tags and cut ends; a dimerising Fc or GST) VIHVTKEVKEVATLSCGHNVSVEELAQTRIYWQKEKKMVLTMMSGDVKIWPEYKNRTIFDITNNLSIVILALRPSDEGTYECVVLKYENDAFKREHLAEVTLSVKAD | 366 | 42100 | 2370 | 0.5 | 6.5 | 1 | 18.5 |  |  |  |
| CD80 E35D/N48K/K89N IgV-Fc (Fc fusion, not shown: small tags and cut ends; a dimerising Fc or GST) VIHVTKEVKEVATLSCGHNVSVEELAQTRIYWQKDKKMVLTMMSGDMKIWPEYKNRTIFDITNNLSIVILALRPSDEGTYECVVLKYENDAFKREHLAEVTLSVKAD | 411 | 34700 | 5770 | 0.6 | 14 | 0.9 | 45 |  |  |  |
| CD80 E35D/M47V/N48K/V68M/L85Q IgV-Fc (Fc fusion, not shown: small tags and cut ends; a dimerising Fc or GST) VIHVTKEVKEVATLSCGHNVSVEELAQTRIYWQKDKKMVLTMMSGDVKIWPEYKNRTIFDITNNLSIMILALRPSDEGTYECVVQKYEKDAFKREHLAEVTLSVKAD | 118 | 26100 | 10500 | 0.2 | 88.8 | 0.6 | 81.9 |  |  |  |
| CD80 M47V/N48K/V68M IgV-Fc (Fc fusion, not shown: small tags and cut ends; a dimerising Fc or GST) VIHVTKEVKEVATLSCGHNVSVEELAQTRIYWQKEKKMVLTMMSGDVKIWPEYKNRTIFDITNNLSIMILALRPSDEGTYECVVLKYEKDAFKREHLAEVTLSVKAD | 641 | 34600 | 14500 | 0.9 | 22.6 | 0.9 | 113 |  |  |  |
| CD80 E35D/M47V/N48K/K89N IgV-Fc (Fc fusion, not shown: small tags and cut ends; a dimerising Fc or GST) VIHVTKEVKEVATLSCGHNVSVEELAQTRIYWQKDKKMVLTMMSGDVKIWPEYKNRTIFDITNNLSIVILALRPSDEGTYECVVLKYENDAFKREHLAEVTLSVKAD | 701 | 43800 | 6670 | 1 | 9.5 | 1.1 | 52.1 |  |  |  |
| CD80 E35D/M47V/V68M/L85Q/K89N IgV-Fc (Fc fusion, not shown: small tags and cut ends; a dimerising Fc or GST) VIHVTKEVKEVATLSCGHNVSVEELAQTRIYWQKDKKMVLTMMSGDVNIWPEYKNRTIFDITNNLSIMILALRPSDEGTYECVVQKYENDAFKREHLAEVTLSVKAD | 246 | 30300 | 12100 | 0.3 | 49.1 | 0.7 | 94.4 |  |  |  |
| CD80 E35D/D46V/M47V/V68M/L85Q IgV-Fc (Fc fusion, not shown: small tags and cut ends; a dimerising Fc or GST) VIHVTKEVKEVATLSCGHNVSVEELAQTRIYWQKDKKMVLTMMSGVVNIWPEYKNRTIFDITNNLSIMILALRPSDEGTYECVVQKYEKDAFKREHLAEVTLSVKAD | 331 | 36500 | 26300 | 0.5 | 79.4 | 0.9 | 205 |  |  |  |
| CD155 S42A variant IgV-Fc fusion (Fc fusion, not shown: a dimerising Fc or GST) WPPPGTGDVVVQAPTQVPGFLGDSVTLPCYLQVPNMEVTHVAQLTWARHGESGSMAVFHQTQGPSYSESKRLEFVAARLGAELRNASLRMFGLRVEDEGNYTCLFVTFPQGSRSVDIWLRVL |  |  |  |  |  |  |  | 1620 | 2190 | 1930 |
| CD155 S42G/S52Q/L104E/G111R variant IgV-Fc fusion (Fc fusion, not shown: a dimerising Fc or GST) WPPPGTGDVVVQAPTQVPGFLGDSVTLPCYLQVPNMEVTHVGQLTWARHGEQGSMAVFHQTQGPSYSESKRLEFVAARLGAELRNASLRMFGLRVEDEGNYTCEFVTFPQRSRSVDIWLRVL |  |  |  |  |  |  |  |  | 2020 | 2010 |
| CD155 S42L variant IgV-Fc fusion (Fc fusion, not shown: a dimerising Fc or GST) WPPPGTGDVVVQAPTQVPGFLGDSVTLPCYLQVPNMEVTHVLQLTWARHGESGSMAVFHQTQGPSYSESKRLEFVAARLGAELRNASLRMFGLRVEDEGNYTCLFVTFPQGSRSVDIWLRVL |  |  |  |  |  |  |  | 1620 | 2190 | 1930 |
| CD155 S42C/S52M/Q62F variant IgV-Fc fusion (Fc fusion, not shown: a dimerising Fc or GST) WPPPGTGDVVVQAPTQVPGFLGDSVTLPCYLQVPNMEVTHVCQLTWARHGEMGSMAVFHQTFGPSYSESKRLEFVAARLGAELRNASLRMFGLRVEDEGNYTCLFVTFPQGSRSVDIWLRVL |  |  |  |  |  |  |  | 1480 | 2080 | 1860 |
| CD155 S42G/S52L/Q62F/L104Q variant IgV-Fc fusion (Fc fusion, not shown: a dimerising Fc or GST) WPPPGTGDVVVQAPTQVPGFLGDSVTLPCYLQVPNMEVTHVGQLTWARHGELGSMAVFHQTFGPSYSESKRLEFVAARLGAELRNASLRMFGLRVEDEGNYTCQFVTFPQGSRSVDIWLRVL |  |  |  |  |  |  |  | 1640 | 2160 | 1920 |
